Assay results from patent US20040048377A1.

Legend:
mouse Grg4 (mouse) = mouse Grg4 (mouse) (UniProt Q62441); test: cell-based or functional assay
[1] = molecular target: Nkx6.1ΔTN (Nkx6.1 with the TN domain deleted, Δaa 90-113) (rat) (UniProt O35762); test: immuno-precipitation, 35S-labelled Grg4, Nkx protein on antibody-proteinA-sepharose
Sequence of Nkx6.1ΔTN (Nkx6.1 with the TN domain deleted, Δaa 90-113) (rat) (O35762 other isoform, or with tags, fused parts or gaps mutant): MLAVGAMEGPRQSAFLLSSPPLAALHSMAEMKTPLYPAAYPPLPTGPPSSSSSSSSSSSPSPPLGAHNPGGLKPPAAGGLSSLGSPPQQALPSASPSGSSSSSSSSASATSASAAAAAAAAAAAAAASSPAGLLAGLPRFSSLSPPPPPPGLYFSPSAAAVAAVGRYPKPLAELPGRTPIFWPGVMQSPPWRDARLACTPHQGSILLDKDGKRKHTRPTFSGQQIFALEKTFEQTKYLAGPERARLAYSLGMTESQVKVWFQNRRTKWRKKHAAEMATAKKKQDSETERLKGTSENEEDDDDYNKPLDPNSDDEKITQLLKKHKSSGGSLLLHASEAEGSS

Sequence of mouse Grg4 (mouse) (Q62441 whole entry, the tested form may be a part): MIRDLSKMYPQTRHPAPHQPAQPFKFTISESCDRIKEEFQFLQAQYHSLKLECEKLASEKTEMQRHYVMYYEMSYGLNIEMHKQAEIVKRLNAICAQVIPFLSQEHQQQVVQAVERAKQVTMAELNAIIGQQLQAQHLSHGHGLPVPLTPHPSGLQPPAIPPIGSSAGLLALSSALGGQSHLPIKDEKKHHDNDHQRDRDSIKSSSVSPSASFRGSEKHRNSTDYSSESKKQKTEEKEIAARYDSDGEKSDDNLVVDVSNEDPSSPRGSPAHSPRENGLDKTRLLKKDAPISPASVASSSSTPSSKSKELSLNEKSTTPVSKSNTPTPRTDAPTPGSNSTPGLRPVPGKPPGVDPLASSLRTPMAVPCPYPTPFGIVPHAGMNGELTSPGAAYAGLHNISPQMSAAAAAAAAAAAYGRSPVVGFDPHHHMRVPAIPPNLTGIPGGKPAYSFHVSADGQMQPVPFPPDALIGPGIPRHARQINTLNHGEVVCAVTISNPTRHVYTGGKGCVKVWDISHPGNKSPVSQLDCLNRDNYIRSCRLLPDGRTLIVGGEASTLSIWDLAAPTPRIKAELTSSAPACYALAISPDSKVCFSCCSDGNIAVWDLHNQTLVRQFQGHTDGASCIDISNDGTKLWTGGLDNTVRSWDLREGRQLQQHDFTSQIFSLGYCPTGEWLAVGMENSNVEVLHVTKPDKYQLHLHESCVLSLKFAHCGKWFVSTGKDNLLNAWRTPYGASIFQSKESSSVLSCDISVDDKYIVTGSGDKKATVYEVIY
Sequence of mouse Grg4 (Q62441 whole entry): as the sequence (Q62441 whole entry, the tested form may be a part) above

In the case of “Gal-Nkx6.2 (full-length Nkx6.2 fused to the DNA binding domain of yeast Gal4) (from UniProt P04386 1-147; P43688 1-289)”, the repressor activity in the UAS-luciferase reporter assay in COS-7 cells, with increasing amounts of co-transfected Grg4 (mouse Grg4 (mouse)) is reported as < 10 fold.

“Gal-Nkx6.1 (full-length Nkx6.1 fused to the DNA binding domain of yeast Gal4) (from UniProt P04386 1-147; O35762 1-365)” was tested, and the repressor activity in the UAS-luciferase reporter assay in COS-7 cells, with increasing amounts of co-transfected Grg4 (mouse Grg4 (mouse)) was < 10 fold.

In the case of “Gal-Nkx2.9 (full-length Nkx2.9 fused to the DNA binding domain of yeast Gal4) (from UniProt P04386 1-147; O70584 1-235)”, the repressor activity in the UAS-luciferase reporter assay in COS-7 cells, with increasing amounts of co-transfected Grg4 (mouse Grg4 (mouse)) is reported as < 10 fold.

Substance “Gal-Nkx6.1ΔTN (Nkx6.1 lacking aa 90-113 fused to the DNA binding domain of yeast Gal4) (from UniProt P04386 1-147; O35762 1-89; O35762 114-365)” has a repressor activity in the UAS-luciferase reporter assay in COS-7 cells, with increasing amounts of co-transfected Grg4 (mouse Grg4 (mouse)) of 2 fold.

For mouse Grg4 (from UniProt Q62441 1-773), the fold reduction of the interaction with Grg4 compared to the full-length protein [1] was 5 fold.

For “Gal-Nkx6.2ΔTN (Nkx6.2 lacking aa 2-73 fused to the DNA binding domain of yeast Gal4) (from UniProt P04386 1-147)”, the repressor activity in the UAS-luciferase reporter assay in COS-7 cells, with increasing amounts of co-transfected Grg4 (mouse Grg4 (mouse)) was 2 fold.

For “Gal-Nkx2.2 (full-length Nkx2.2 fused to the DNA binding domain of yeast Gal4) (from UniProt P04386 1-147)”, the repressor activity in the UAS-luciferase reporter assay in COS-7 cells, with increasing amounts of co-transfected Grg4 (mouse Grg4 (mouse)) was < 10 fold.
